Measured values from publication PMC7193532 (Acta Crystallographica. Section D, Structural Biology, 2020).
“And” between values parts separate entries of the source, which are not always exact repeats. Equal values may be shown once.

Target: the Ala and ValAla insertions and the Met1Ala substitution and Ala insertion
Experiment: SPR

Substance: rufomycin I (RUF-I) (peptide)
- fold reduction in binding affinity against wild type: 13 fold and 16 fold
